Laboratory results as given in article PMC2756588.

T1: Abp1, P15891
T1 sequence (P15891 535-592, looked up): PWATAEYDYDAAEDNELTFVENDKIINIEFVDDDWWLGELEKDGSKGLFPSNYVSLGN

T2: Bbc1, P47068
T2 sequence (P47068 1-78, looked up): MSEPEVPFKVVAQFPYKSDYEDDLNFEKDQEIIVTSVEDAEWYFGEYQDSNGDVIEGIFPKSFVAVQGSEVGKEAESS

T3: Boi1, P38041
T3 sequence (P38041 1-86, looked up): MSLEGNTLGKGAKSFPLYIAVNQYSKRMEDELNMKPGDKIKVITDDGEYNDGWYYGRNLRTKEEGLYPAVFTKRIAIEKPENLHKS

T4: Boi2, P39969
T4 sequence (P39969 32-116, looked up): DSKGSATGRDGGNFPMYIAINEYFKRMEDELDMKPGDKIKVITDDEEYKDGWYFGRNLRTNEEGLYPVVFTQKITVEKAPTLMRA

T5: Bud14, P27637
T5 sequence (P27637 247-328, looked up): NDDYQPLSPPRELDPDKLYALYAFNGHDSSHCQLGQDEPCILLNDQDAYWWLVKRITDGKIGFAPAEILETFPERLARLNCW

T6: Bzz1-1, P38822
T6 sequence (P38822 478-572, looked up): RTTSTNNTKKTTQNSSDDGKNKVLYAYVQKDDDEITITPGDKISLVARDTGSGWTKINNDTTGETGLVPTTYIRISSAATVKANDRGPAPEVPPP

T7: Bzz1-2, P38822
T7 sequence (P38822 568-633, looked up): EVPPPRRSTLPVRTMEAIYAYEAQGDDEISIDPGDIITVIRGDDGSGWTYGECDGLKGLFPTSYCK

T8: Cdc25, P04821
T8 sequence (P04821 50-136, looked up): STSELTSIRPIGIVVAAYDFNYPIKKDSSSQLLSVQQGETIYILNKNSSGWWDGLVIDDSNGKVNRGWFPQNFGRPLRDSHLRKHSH

T9: Cyk3, Q07533
T9 sequence (Q07533 1-83, looked up): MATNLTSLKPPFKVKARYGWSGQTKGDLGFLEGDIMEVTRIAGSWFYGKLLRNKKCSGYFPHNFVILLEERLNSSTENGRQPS

T10: Fus1, P11710
T10 sequence (P11710 432-512, looked up): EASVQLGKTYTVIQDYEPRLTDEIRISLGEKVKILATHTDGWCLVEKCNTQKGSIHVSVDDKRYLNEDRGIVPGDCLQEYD

T11: Hof1, Q05080
T11 sequence (Q05080 590-669, looked up): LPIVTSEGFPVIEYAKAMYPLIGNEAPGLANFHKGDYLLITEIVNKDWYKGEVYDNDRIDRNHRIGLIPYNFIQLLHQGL

T12: Hse1, P38753
T12 sequence (P38753 208-285, looked up): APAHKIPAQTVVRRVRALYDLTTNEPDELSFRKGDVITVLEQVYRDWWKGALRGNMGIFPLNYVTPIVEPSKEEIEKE

T13: Lsb1, P53281
T13 sequence (P53281 45-122, looked up): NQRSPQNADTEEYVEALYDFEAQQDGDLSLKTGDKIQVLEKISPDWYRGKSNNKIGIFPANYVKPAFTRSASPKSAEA

T14: Lsb3, P43603
T14 sequence (P43603 385-451, looked up): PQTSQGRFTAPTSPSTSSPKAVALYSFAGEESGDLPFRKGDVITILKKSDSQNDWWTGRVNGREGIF

T15: Lsb4, P32793
T15 sequence (P32793 402-468, looked up): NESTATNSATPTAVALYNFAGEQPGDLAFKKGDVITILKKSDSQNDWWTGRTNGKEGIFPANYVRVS

T16: Myo5, Q04439
T16 sequence (Q04439 1072-1160, looked up): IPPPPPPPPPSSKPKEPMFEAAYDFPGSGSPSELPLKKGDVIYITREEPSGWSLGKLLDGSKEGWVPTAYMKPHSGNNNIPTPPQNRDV

T17: Nbp2, Q12163
T17 sequence (Q12163 103-180, looked up): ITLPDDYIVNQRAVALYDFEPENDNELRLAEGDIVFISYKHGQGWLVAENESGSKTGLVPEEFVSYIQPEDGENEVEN

T18: Pex13, P80667
T18 sequence (P80667 295-386, looked up): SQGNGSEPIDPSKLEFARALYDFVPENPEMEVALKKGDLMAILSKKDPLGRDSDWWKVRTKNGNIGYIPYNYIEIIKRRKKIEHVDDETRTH

T19: Pin3, Q06449
T19 sequence (Q06449 53-122, looked up): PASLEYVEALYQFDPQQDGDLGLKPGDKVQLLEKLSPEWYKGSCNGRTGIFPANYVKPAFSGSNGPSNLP

T20: Sla1-2, P32790
T20 sequence (P32790 60-140, looked up): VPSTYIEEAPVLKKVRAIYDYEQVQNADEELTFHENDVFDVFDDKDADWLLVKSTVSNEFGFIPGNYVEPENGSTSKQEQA

T21: Sla1-3, P32790
T21 sequence (P32790 344-424, looked up): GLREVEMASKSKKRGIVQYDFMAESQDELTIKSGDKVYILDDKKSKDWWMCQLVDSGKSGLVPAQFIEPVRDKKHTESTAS

B1: unnamed (peptide)
chain: TTAPALPSLPPPPLL
B2: unnamed (peptide)
chain: LKRITSPPLPPRADS
B3: unnamed (peptide)
chain: TTNRGPPPLPPRANV

target: T1, Abp1, P15891; assay: SPOT array; details: median of control spots 935

Row | SPOT intensity | Binder
1 | 0 | B1
2 | 40 | B2
3 | 48 | B3

target: T2, Bbc1, P47068; assay: SPOT array; details: median of control spots 796

Row | SPOT intensity | Binder
4 | 0 | B1
5 | 33 | B2
6 | 33 | B3

target: Bem1-1, P29366; assay: SPOT array; details: median of control spots 4282
Sequence (P29366 55-141): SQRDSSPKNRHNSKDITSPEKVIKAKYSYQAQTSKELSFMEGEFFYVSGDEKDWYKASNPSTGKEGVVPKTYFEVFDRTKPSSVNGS

Row | SPOT intensity | Binder
7 | 0 | B1
8 | 0 | B2
9 | 0 | B3

target: Bem1-2, P29366; assay: SPOT array; details: median of control spots 4347
Sequence (P29366 139-227): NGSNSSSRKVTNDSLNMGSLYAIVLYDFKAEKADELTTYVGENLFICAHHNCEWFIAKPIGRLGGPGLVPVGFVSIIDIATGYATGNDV

Row | SPOT intensity | Binder
10 | 0 | B1
11 | 0 | B2
12 | 11 | B3

target: T3, Boi1, P38041; assay: SPOT array; details: median of control spots 1162

Row | SPOT intensity | Binder
13 | 0 | B1
14 | 1 | B2
15 | 0 | B3

target: T4, Boi2, P39969; assay: SPOT array; details: median of control spots 1161

Row | SPOT intensity | Binder
16 | 0 | B1
17 | 0 | B2
18 | 0 | B3

target: T5, Bud14, P27637; assay: SPOT array; details: median of control spots 956

Row | SPOT intensity | Binder
19 | 0 | B1
20 | 3 | B2
21 | 1 | B3

target: T6, Bzz1-1, P38822; assay: SPOT array; details: median of control spots 4446

Row | SPOT intensity | Binder
22 | 0 | B1
23 | 0 | B2
24 | 0 | B3

target: T7, Bzz1-2, P38822; assay: SPOT array; details: median of control spots 4538

Row | SPOT intensity | Binder
25 | 2 | B1
26 | 6 | B2
27 | 8 | B3

target: T8, Cdc25, P04821; assay: SPOT array; details: median of control spots 969

Row | SPOT intensity | Binder
28 | 0 | B1
29 | 0 | B2
30 | 0 | B3

target: T9, Cyk3, Q07533; assay: SPOT array; details: median of control spots 1451

Row | SPOT intensity | Binder
31 | 0 | B1
32 | 0 | B2
33 | 0 | B3

target: T10, Fus1, P11710; assay: SPOT array; details: median of control spots 1200

Row | SPOT intensity | Binder
34 | 0 | B1
35 | 0 | B2
36 | 0 | B3

target: GST; assay: SPOT array; details: median of control spots 978

Row | SPOT intensity | Binder
37 | 0 | B1
38 | 0 | B2
39 | 0 | B3

target: T11, Hof1, Q05080; assay: SPOT array; details: median of control spots 4086

Row | SPOT intensity | Binder
40 | 6110 | B1
41 | 520 | B2
42 | 425 | B3

target: T12, Hse1, P38753; assay: SPOT array; details: median of control spots 1727

Row | SPOT intensity | Binder
43 | 0 | B1
44 | 38 | B2
45 | 750 | B3

target: T13, Lsb1, P53281; assay: SPOT array; details: median of control spots 388

Row | SPOT intensity | Binder
46 | 0 | B1
47 | 892 | B2
48 | 1110 | B3

target: T14, Lsb3, P43603; assay: SPOT array; details: median of control spots 406

Row | SPOT intensity | Binder
49 | 0 | B1
50 | 566 | B2
51 | 892 | B3

target: T15, Lsb4, P32793; assay: SPOT array; details: median of control spots 397

Row | SPOT intensity | Binder
52 | 0 | B1
53 | 700 | B2
54 | 743 | B3

target: Myo3, P36006; assay: SPOT array; details: median of control spots 468

Row | SPOT intensity | Binder
55 | 728 | B1
56 | 75 | B2
57 | 129 | B3

target: T16, Myo5, Q04439; assay: SPOT array; details: median of control spots 471

Row | SPOT intensity | Binder
58 | 651 | B1
59 | 4 | B2
60 | 206 | B3

target: T17, Nbp2, Q12163; assay: SPOT array; details: median of control spots 357

Row | SPOT intensity | Binder
61 | 0 | B1
62 | 0 | B2
63 | 0 | B3

target: T18, Pex13, P80667; assay: SPOT array; details: median of control spots 1341

Row | SPOT intensity | Binder
64 | 4 | B1
65 | 145 | B2
66 | 470 | B3

target: T19, Pin3, Q06449; assay: SPOT array; details: median of control spots 2171

Row | SPOT intensity | Binder
67 | 0 | B1
68 | 11 | B2
69 | 48 | B3

target: Rvs167, P39743; assay: SPOT array; details: median of control spots 2707
Sequence (P39743 419-482): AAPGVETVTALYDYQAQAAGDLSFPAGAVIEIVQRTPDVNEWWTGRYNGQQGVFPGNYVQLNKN

Row | SPOT intensity | Binder
70 | 0 | B1
71 | 4040 | B2
72 | 4620 | B3

target: Sho1, P40073; assay: SPOT array; details: median of control spots 1148
Sequence (P40073 287-367): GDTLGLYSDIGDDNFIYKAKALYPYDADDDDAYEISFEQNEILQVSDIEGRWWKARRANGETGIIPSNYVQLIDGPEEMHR

Row | SPOT intensity | Binder
73 | 0 | B1
74 | 65 | B2
75 | 58 | B3

target: T20, Sla1-2, P32790; assay: SPOT array; details: median of control spots 712

Row | SPOT intensity | Binder
76 | 0 | B1
77 | 0 | B2
78 | 0 | B3

target: T21, Sla1-3, P32790; assay: SPOT array; details: median of control spots 5475

Row | SPOT intensity | Binder
79 | 0 | B1
80 | 0 | B2
81 | 1 | B3
